Molecular target: T1, TaB3-2A1-GST (Triticum aestivum, UniProt A0A3B6AVE6 1-220)
T1 sequence: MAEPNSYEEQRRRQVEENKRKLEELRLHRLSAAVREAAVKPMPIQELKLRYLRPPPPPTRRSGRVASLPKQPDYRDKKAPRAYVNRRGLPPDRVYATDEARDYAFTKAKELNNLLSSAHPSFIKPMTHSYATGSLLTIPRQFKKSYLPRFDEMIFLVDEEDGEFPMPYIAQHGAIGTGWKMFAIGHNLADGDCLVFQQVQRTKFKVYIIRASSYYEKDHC
Assay: EMSA

B1: CCRM1-1 probe (dsDNA)
DNA 1: CTTTTGTGTTGGCAAACTGCGCTTTTCCAACCGATTTTGTTCTTCTCGCGCTTTCTTCTTAGGCTAAACAAACCTCACCGTGCACGCAGCCATGGTCCTGAACCTTCA
DNA 2: TGAAGGTTCAGGACCATGGCTGCGTGCACGGTGAGGTTTGTTTAGCCTAAGAAGAAAGCGCGAGAAGAACAAAATCGGTTGGAAAAGCGCAGTTTGCCAACACAAAAG
  binding result: binds

Source: paper PMC10502752
